These results are taken from publication PMC10149257, “Substrate recognition and proton coupling by a bacterial member of solute carrier family 17” (The Journal of Biological Chemistry, 2023).

Data set [1] concerns T1, O=C(O)[C@H](O)[C@@H](O)[C@@H](O)[C@H](O)CO.
T1 construct: full length, C-terminal modified decahistidine tag, pBAD; expressed in dgoT-deleted E. coli (Keio dgoT727(del)::kan)
In words: cells, lysate or membranes. The class given is cell-based, Escherichia coli. The conditions noted are these: 150 mM KCl, pH 6, 30 °C, 30 s, H+ cotransport, labelled compound.

The target of data set [2] is T2, Sialin (Rattus norvegicus, UniProt Q5Q0U0).
T2 construct: gene Slc17a5
T2 sequence (Q5Q0U0 1-495): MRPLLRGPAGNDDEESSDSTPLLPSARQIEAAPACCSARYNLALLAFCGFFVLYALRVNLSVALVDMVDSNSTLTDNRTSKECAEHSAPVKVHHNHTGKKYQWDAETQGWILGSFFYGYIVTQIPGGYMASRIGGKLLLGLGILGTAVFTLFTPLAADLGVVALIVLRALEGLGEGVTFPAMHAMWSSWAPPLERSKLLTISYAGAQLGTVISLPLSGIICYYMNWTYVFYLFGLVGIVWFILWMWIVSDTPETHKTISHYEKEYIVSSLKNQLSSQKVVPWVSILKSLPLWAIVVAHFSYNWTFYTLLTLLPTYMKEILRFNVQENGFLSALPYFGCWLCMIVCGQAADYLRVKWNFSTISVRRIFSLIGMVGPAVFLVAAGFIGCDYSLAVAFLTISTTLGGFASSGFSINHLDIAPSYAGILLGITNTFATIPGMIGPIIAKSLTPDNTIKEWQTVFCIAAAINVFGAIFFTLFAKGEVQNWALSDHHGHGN
In words: inhibition of 3H-glucuronic acid uptake by unlabelled compound in transfected HEK293T cells. The format is cell-based. The conditions noted are these: room temperature, 4 min, Ringer's solution; self-competition with labelled compound.

Data set [3] concerns the target T3, Sialin (Rattus norvegicus, UniProt Q5Q0U0, Y54F, form not given).
T3 construct: gene Slc17a5
T3 sequence (Q5Q0U0 1-495 Y54F): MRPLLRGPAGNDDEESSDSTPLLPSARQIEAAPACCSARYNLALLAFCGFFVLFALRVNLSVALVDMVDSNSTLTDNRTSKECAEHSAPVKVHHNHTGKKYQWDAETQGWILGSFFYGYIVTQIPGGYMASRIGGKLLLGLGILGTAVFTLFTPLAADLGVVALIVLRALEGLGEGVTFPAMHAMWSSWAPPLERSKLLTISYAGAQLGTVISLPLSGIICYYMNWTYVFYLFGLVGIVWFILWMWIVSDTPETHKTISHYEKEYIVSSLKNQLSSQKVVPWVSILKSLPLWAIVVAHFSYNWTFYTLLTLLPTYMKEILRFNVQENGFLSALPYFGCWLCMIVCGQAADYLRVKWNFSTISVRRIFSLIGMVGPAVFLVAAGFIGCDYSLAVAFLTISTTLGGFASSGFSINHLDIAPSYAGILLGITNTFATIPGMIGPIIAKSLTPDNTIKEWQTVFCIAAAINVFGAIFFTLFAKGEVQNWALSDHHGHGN
The description is as above. The class given is cell-based. The conditions noted are these: room temperature, 4 min, Ringer's solution; self-competition with labelled compound.

Substrate in data set [4]: O=C(O)[C@H](O)[C@@H](O)[C@@H](O)[C@H](O)CO
Description: cells, lysate or membranes. The format is cell-based, Escherichia coli. The conditions noted are these: 150 mM KCl, pH 6, 30 °C, 20 s, H+ cotransport, labelled compound.

Take DgoT (Escherichia coli; Y44F): the Km in data set [1] stood at 22.8 ± 7.7 µM.
Turning to `O=C(O)[C@H]1OC(O)[C@H](O)[C@@H](O)[C@@H]1O` (stereo partly shown) [glucuronic acid], the IC50 is around 2000 µM on Sialin [2] and around 3000 µM on Sialin [3].

B1: DgoT (Escherichia coli) (protein)
chain: MVSGFAMPKIWRKLAMDIPVNAAKPGRRRYLTLVMIFITVVICYVDRANLAVASAHIQEEFGITKAEMGYVFSAFAWLYTLCQIPGGWFLDRVGSRVTYFIAIFGWSVATLFQGFATGLMSLIGLRAITGIFEAPAFPTNNRMVTSWFPEHERASAVGFYTSGQFVGLAFLTPLLIWIQEMLSWHWVFIVTGGIGIIWSLIWFKVYQPPRLTKGISKAELDYIRDGGGLVDGDAPVKKEARQPLTAKDWKLVFHRKLIGVYLGQFAVASTLWFFLTWFPNYLTQEKGITALKAGFMTTVPFLAAFVGVLLSGWVADLLVRKGFSLGFARKTPIICGLLISTCIMGANYTNDPMMIMCLMALAFFGNGFASITWSLVSSLAPMRLIGLTGGVFNFAGGLGGITVPLVVGYLAQGYGFAPALVYISAVALIGALSYILLVGDVKRVG
notes: full length, C-terminal modified decahistidine tag, pBAD; expressed in dgoT-deleted E. coli (Keio dgoT727(del)::kan)
As to B1, in data set [4], the Km is 1.97 ± 1.1 µM.
